Test results reported in patent US20150191530A1 (POMONA RICERCA S R L, published 2015).

Experiments:
bovine serum albumin = target: T1, bovine serum albumin (bovine, UniProt P02769 25-607); assay: ELISA with crude Fab preparations
T1 construct: also called BSA

[1] = target: T2, recombinant BKV VP1 protein (Abcam ab74567) (BK virus, UniProt P03088 1-362); assay: ELISA on recombinant JCV VP1 and recombinant BKV VP1
T2 sequence: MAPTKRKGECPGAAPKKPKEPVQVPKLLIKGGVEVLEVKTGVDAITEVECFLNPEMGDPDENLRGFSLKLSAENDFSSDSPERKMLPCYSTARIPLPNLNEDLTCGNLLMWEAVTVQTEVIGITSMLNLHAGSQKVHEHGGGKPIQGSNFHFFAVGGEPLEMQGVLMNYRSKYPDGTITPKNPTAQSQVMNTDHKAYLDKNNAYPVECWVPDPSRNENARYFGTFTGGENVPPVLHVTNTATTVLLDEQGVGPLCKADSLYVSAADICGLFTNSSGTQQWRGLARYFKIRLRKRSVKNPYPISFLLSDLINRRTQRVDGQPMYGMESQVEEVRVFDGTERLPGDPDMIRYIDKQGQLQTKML

[2] = target: T3, recombinant JCV VP1 protein (Mad1 strain, Abcam ab74569) (JC virus, Mad1 strain, UniProt P03089 1-354); assay: method not stated
T3 construct: also called recombinant VP1 from Mad1 strain; VP1/JCV
T3 sequence (P03089 whole entry): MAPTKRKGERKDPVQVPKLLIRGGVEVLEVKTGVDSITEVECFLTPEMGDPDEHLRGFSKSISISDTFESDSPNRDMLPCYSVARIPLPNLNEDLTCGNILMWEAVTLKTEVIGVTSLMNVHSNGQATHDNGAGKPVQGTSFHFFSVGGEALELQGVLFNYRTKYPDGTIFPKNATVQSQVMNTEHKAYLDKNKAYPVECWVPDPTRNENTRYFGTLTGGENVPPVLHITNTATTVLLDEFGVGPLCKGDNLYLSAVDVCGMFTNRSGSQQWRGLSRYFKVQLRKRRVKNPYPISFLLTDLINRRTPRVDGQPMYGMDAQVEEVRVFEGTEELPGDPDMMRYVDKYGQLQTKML

T1 sequence (P02769 25-607 limits assumed): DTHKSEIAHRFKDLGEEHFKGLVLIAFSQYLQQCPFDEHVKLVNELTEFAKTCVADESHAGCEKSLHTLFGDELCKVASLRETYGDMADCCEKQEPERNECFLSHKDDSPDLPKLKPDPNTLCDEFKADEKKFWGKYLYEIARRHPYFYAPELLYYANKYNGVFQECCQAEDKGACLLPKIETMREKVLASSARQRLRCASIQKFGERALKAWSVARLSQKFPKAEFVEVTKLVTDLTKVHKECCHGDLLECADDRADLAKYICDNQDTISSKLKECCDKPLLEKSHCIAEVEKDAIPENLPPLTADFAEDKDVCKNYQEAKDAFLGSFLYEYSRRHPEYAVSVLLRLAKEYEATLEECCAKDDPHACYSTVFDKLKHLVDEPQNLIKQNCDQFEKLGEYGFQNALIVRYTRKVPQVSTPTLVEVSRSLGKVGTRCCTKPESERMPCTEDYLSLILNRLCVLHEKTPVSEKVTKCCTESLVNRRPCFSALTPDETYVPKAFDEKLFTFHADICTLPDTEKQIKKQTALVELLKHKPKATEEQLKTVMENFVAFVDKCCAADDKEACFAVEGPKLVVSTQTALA

B1: GRE1 human anti-JCV VP1 monoclonal antibody (Fab, V domains shown)
VH: WGPGLVKPSQSLSLTCAVSGASVSSGINYWSWIRLYPGKGLEWIGYVYSSGTTYYNPSLKSRVSISLDTSKNQFSLNLRSVTAADTAVYYCARDRGDSSGSSYYKYYMDVWGKGTTVTVSS
VL: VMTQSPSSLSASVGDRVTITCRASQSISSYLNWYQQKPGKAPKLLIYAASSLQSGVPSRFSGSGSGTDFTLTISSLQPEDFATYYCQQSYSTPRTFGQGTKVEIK
notes: also called IgG GRE; JCV-GRE1
Bovine serum albumin
  binding result: no binding
[1]
  binding result: no binding
[2]
  Kd: ~1 nM
